B1: ycjU: E. coli ycjU (β-phosphoglucomutase), complemented on plasmid (protein, listed as Escherichia coli)
chain: MKLQGVIFDLDGVITDTAHLHFQAWQQIAAEIGISIDAQFNESLKGISRDESLRRILQHGGKEGDFNSQERAQLAYRKNLLYVHSLRELTVNAVLPGIRSLLADLRAQQISVGLASVSLNAPTILAALELREFFTFCADASQLKNSKPDPEIFLAACAGLGVPPQACIGIEDAQAGIDAINASGMRSVGIGAGLTGAQLLLPSTESLTWPRLSAFWQNV
B2: ndk: E. coli ndk (nucleoside diphosphate kinase), complemented on plasmid (protein, listed as Escherichia coli)
chain: MAIERTFSIIKPNAVAKNVIGNIFARFEAAGFKIVGTKMLHLTVEQARGFYAEHDGKPFFDGLVEFMTSGPIVVSVLEGENAVQRHRDLLGATNPANALAGTLRADYADSLTENGTHGSDSVESAAREIAYFFGEGEVCPRTR
B3: cmk: E. coli cmk (cytidylate kinase), complemented on plasmid (protein, listed as Escherichia coli)
chain: MTAIAPVITIDGPSGAGKGTLCKAMAEALQWHLLDSGAIYRVLALAALHHHVDVASEDALVPLASHLDVRFVSTNGNLEVILEGEDVSGEIRTQEVANAASQVAAFPRVREALLRRQRAFRELPGLIADGRDMGTVVFPDAPVKIFLDASSEERAHRRMLQLQEKGFSVNFERLLAEIKERDDRDRNRAVAPLVPAADALVLDSTTLSIEQVIEKALQYARQKLALA
B4: SEQ ID NO: 46: CmaUGT1 (Cucurbita maxima) (protein, listed as Cucurbita maxima)
chain: MELSHTHHVLLFPFPAKGHIKPFFSLAQLLCNAGLRVTFLNTDHHHRRIHDLNRLAAQLPTLHFDSVSDGLPPDEPRNVFDGKLYESIRQVTSSLFRELLVSYNNGTSSGRPPITCVITDVMFRFPIDIAEELGIPVFTFSTFSARFLFLIFWIPKLLEDGQLRYPEQELHGVPGAEGLIRWKDLPGFWSVEDVADWDPMNFVNQTLATSRSSGLILNTFDELEAPFLTSLSKIYKKIYSLGPINSLLKNFQSQPQYNLWKEDHSCMAWLDSQPRKSVVFVSFGSVVKLTSRQLMEFWNGLVNSGMPFLLVLRSDVIEAGEEVVREIMERKAEGRWVIVSWAPQEEVLAHDAVGGFLTHSGWNSTLESLAAGVPMISWPQIGDQTSNSTWISKVWRIGLQLEDGFDSSTIETMVRSIMDQTMEKTVAELAERAKNRASKNGTSYRNFQTLIQDITNIIETHI
B5: galU: E. coli galU (UTP-glucose-1-phosphate uridylyltransferase), complemented on plasmid (protein, listed as Escherichia coli)
chain: MAAINTKVKKAVIPVAGLGTRMLPATKAIPKEMLPLVDKPLIQYVVNECIAAGITEIVLVTHSSKNSIENHFDTSFELEAMLEKRVKRQLLDEVQSICPPHVTIMQVRQGLAKGLGHAVLCAHPVVGDEPVAVILPDVILDEYESDLSQDNLAEMIRRFDETGHSQIMVEPVADVTAYGVVDCKGVELAPGESVPMVGVVEKPKADVAPSNLAIVGRYVLSADIWPLLAKTPPGAGDEIQLTDAIDMLIEKETVEAYHMKGKSHDCGNKLGYMQAFVEYGIRHNTLGTEFKAWLEEEMGIKK
B6: pgm: E. coli pgm (phosphoglucomutase), complemented on plasmid (protein, listed as Escherichia coli)
chain: MAIHNRAGQPAQQSDLINVAQLTAQYYVLKPEAGNAEHAVKFGTSGHRGSAARHSFNEPHILAIAQAIAEERAKNGITGPCYVGKDTHALSEPAFISVLEVLAANGVDVIVQENNGFTPTPAVSNAILVHNKKGGPLADGIVITPSHNPPEDGGIKYNPPNGGPADTNVTKVVEDRANALLADGLKGVKRISLDEAMASGHVKEQDLVQPFVEGLADIVDMAAIQKAGLTLGVDPLGGSGIEYWKRIGEYYNLNLTIVNDQVDQTFRFMHLDKDGAIRMDCSSECAMAGLLALRDKFDLAFANDPDYDRHGIVTPAGLMNPNHYLAVAINYLFQHRPQWGKDVAVGKTLVSSAMIDRVVNDLGRKLVEVPVGFKWFVDGLFDGSFGFGGEESAGASFLRFDGTPWSTDKDGIIMCLLAAEITAVTGKNPQEHYNELAKRFGAPSYNRLQAAATSAQKAALSKLSPEMVSASTLAGDPITARLTAAPGNGASIGGLKVMTDNGWFAARPSGTEDAYKIYCESFLGEEHRKQIEKEAVEIVSEVLKNA
B7: pgm-galU: pgm and galU (SEQ ID NOS: 92 and 93) complemented together on plasmid (protein, listed as Escherichia coli)
chain 1: B6 chain
chain 2: B5 chain
B8: SEQ ID NO: 80: SrUGT73E1, with optional His tag (Stevia rebaudiana) (protein, listed as Stevia rebaudiana)
chain: MAHHHHHHVGTGSNDDDDKSPDPNWASTSELVFIPSPGAGHLPPTVELAKLLLHRDQRLSVTIIVMNLWLGPKHNTEARPCVPSLRFVDIPCDESTMALISPNTFISAFVEHHKPRVRDIVRGIIESDSVRLAGFVLDMFCMPMSDVANEFGVPSYNYFTSGAATLGLMFHLQWKRDHEGYDATELKNSDTELSVPSYVNPVPAKVLPEVVLDKEGGSKMFLDLAERIRESKGIIVNSCQAIERHALEYLSSNNNGIPPVFPVGPILNLENKKDDAKTDEIMRWLNEQPESSVVFLCFGSMGSFNEKQVKEIAVAIERSGHRFLWSLRRPTPKEKIEFPKEYENLEEVLPEGFLKRTSSIGKVIGWAPQMAVLSHPSVGGFVSHCGWNSTLESMWCGVPMAAWPLYAEQTLNAFLLVVELGLAAEIRMDYRTDTKAGYDGGMEVTVEEIEDGIRKLMSDGEIRNKVKDVKEKSRAAVVEGGSSYASIGKFIEHVSNVTI
modifications: optional His tag
B9: ugpA: Bifidobacterium bifidum ugpA, complemented on plasmid (protein, listed as Bifidobacterium bifidum)
chain: MAFAEDLKRTEKMTVDDVFEQSAQKMREQGMSEIAISQFRHAYHVWASEKESAWIREDTVEPLHGVRSFHDVYKTIDHDKAVHAFAKTAFLKLNGGLGTSMGLQCAKSLLPVRRHKARQMRFLDIILGQVLTARTRLNVPLPVTFMNSFRTSDDTMKALRHQRKFKQTDIPLEIIQHQEPKIDAATGAPASWPANPDLEWCPPGHGDLFSTLRESGLLDTLLEHGFEYLFISNSDNLGARPSRTLAQYFEDTGAPFMVEVANRTYADRKGGHIVRDTATGRLILREMSQVHPDDKDAAQDIAKHPYFNTNNIWVRIDVLRDMLAEHDGVLPLPVIINNKTVDPIDPQSPAVVQLETAMGAAIGLFEGAICVQVDRMRFLPVKTTNDLFIMRSDRFHLTDSYEMEDGNYIFPNVDLDPRYYKNIEDFNERFPYNVPSLAAANSVSIKGDWTFGRDVIMFADARLEDRNEPSYVPNGEYVGPMGIEPGDWV

Assays:
Format in all cases: cell-based, E. coli
[1] = tested on: steviol glycoside; experiment: steviol glycoside bioconversion with complemented sucrose synthases in chassis strain; conditions: chassis strain with UGT SEQ ID NOS: 15 and 25, stevia leaf extract, glucose fed, 37° C., 48 hr, FIG. 3
Text: Strains were created that expressed candidate sucrose synthase enzymes, which may improve UDP-glucose availability when fed sucrose. Expression of a sucrose synthase enables splitting of sucrose into fructose and glucose. Glucose can be funneled towards UDP-glucose biosynthesis. […] Genes were complemented on plasmid. Fold improvement is with respect to total steviol glycoside conversion. Stevia leaf extract, sucrose, and glucose were fed to the bioconversion strains. Bioconversion took place at 37° C. for 48 hr. Data were quantified by reverse phase LC DAD to quantify conversion of steviol glycosides.

[2] = tested on: steviol glycoside; experiment: steviol glycoside bioconversion with overexpressed genes complemented on plasmid; conditions: chassis strain with UGT SEQ ID NOS: 14 and 24; stevia leaf extract and glucose fed; 37° C., 48 hr; FIG. 2
Description: Other bacterial genes were overexpressed, and bioconversion tested as compared to the chassis strain expressing UGT enzymes of SEQ ID NOS: 14 and 24. […] Fold improvement is with respect to total steviol glycoside conversion. Stevia leaf extract and glucose were fed to the bioconversion strains. Bioconversion took place at 37° C. for 48 hr. Data were quantified by reverse phase LC DAD to quantify conversion of steviol glycosides.

[3] = tested on: mogrol; experiment: primary glycosylation at C3 and C24 hydroxyls of mogrol by cells expressing UGT enzymes; conditions: mogrol fed; 37° C., 48 hrs; LCMS/MS
Description: Specifically, mogrol was fed to cells expressing various UGT enzymes. Reactions were incubated at 37° C. for 48 hrs. Products were quantified by LCMS/MS with authentic standards of each compound.

Molecule | improvement of total steviol glycoside conversion by sucrose synthase [1] | improvement of total steviol glycoside conversion by gene complementation [2] | also measured
SEQ ID NO: 2: sucrose synthase, Solanum tuberosum (StSus2) | dramatic improvements in glycosylation | – | –
SEQ ID NO: 3: sucrose synthase, Solanum tuberosum (StSus2_S11E) | dramatic improvements in glycosylation | – | –
SEQ ID NO: 6: sucrose synthase, Arabidopsis thaliana (AtSus1) | dramatic improvements in glycosylation | – | –
SEQ ID NO: 7: sucrose synthase, Arabidopsis thaliana (AtSus3) | dramatic improvements in glycosylation | – | –
SEQ ID NO: 8: sucrose synthase, Vigna radiate (VrSS1) | dramatic improvements in glycosylation | – | –
SEQ ID NO: 9: sucrose synthase, Vigna radiate (VrSS1_S11E) | dramatic improvements in glycosylation | – | –
SEQ ID NO: 10: sucrose synthase, Glycine Max (GmSS) | dramatic improvements in glycosylation | – | –
SEQ ID NO: 11: sucrose synthase, Glycine Max (GmSS_S11E) | dramatic improvements in glycosylation | – | –
adk: E. coli adk (adenylate kinase), complemented on plasmid | – | improved overall glycosylation | –
B1 | – | improved overall glycosylation | –
B2 | – | improved overall glycosylation | –
B3 | – | improved overall glycosylation | –
B4 | – | – | C3 O-Glucosylation [3]: Yes; C24 O-Glucosylation [3]: No
B5 | – | improved overall glycosylation | –
B6 | – | improved overall glycosylation | –
B7 | – | improved overall glycosylation | –
B8 | – | – | C3 O-Glucosylation [3]: No; C24 O-Glucosylation [3]: Yes
B9 | – | improved overall glycosylation | –
